Results from article PMC8110528, “MyD88 TIR domain higher-order assembly interactions revealed by microcrystal electron diffraction and serial femtosecond crystallography” (Nature Communications, 2021).

Target: T1, GFP-MAL^TIR fusion protein (EGFP residues 3-239; MAL residues 79-221) (UniProt P58753 79-221)
T1 construct: MAL (MyD88 adaptor-like/TIRAP), TIR domain, residues 79-221; Printed order of the fusion: EGFP residues 3-239, GSGGS linker, MAL residues 79-221, in pMCSG7; source: E. coli BL21 (DE3), purified (HisTrap FF, Superdex 75)
T1 sequence (P58753 79-221): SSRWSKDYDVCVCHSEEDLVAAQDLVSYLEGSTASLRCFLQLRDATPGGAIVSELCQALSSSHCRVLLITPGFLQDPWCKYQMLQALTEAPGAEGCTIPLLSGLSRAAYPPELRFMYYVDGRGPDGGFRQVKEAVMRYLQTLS
Assay: crystal growth assay (DIC and GFP fluorescence microscopy); GFP-MAL^TIR-MyD88^TIR or MAL^TIR-MyD88^TIR seeds washed three times, diluted and mixed with MyD88^TIR (95 µM); 10 mM HEPES pH 7.5, 150 mM NaCl, 30 °C
Conditions: both partners purified

B1: MyD88 TIR domain (MyD88^TIR), residues 155-296 (domain or fragment, human, UniProt Q99836 155-296, looked up)
chain: GHMPERFDAFICYCPSDIQFVQEMIRQLEQTNYRLKLCVSDRDVLPGTCVWSIASELIEKRCRRMVVVVSDDYLQSKECDFQTKFALSLSPGAHQKRLIPIKYKAMKKEFPSILRFITVCDYTNPCTKSWFWTRLAKALSLP
notes: MyD88 (myeloid differentiation primary response gene 88), TIR domain, residues 155-296 in pET28b; Forms open-ended two-stranded higher-order assemblies in the MAL-induced microcrystals; source: E. coli BL21 (DE3), purified (HisTrap FF, Superdex 75)
- binding result: binds
